Patent US20240368269A1 (Memorial Sloan Kettering, published 2024)

T1: DLL3 (target in the Fab-Zap internalization assay) (UniProt Q9NYJ7 27-618, limits assumed)
T1 sequence (looked up): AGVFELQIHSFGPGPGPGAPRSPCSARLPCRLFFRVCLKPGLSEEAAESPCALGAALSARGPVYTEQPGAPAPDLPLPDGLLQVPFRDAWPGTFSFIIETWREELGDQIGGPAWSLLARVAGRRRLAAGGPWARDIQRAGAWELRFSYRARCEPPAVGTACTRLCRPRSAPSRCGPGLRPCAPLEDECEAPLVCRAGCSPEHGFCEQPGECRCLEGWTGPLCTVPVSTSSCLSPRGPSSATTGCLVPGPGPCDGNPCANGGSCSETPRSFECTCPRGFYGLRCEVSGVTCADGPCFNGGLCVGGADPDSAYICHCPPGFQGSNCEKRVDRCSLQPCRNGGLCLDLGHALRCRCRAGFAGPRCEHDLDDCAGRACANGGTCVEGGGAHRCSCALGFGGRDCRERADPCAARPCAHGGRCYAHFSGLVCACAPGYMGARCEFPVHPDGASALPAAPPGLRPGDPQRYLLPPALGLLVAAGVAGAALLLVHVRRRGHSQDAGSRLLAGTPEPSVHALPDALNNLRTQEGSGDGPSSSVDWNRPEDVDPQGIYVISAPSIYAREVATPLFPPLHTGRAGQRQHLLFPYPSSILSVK

B1: N10 (antibody, V domains shown)
VH: QVQLVQSGAEVKKPGASVKVSCKASGYTFTGYYMHWVRQAPGQGLEWMGWINPHSGAPNSAQKFQVRVTMTRDTSISTAYMELSRLRSDDTAVYYCARDSSGWYGDAFDIWGQGTMVTVSS
VL: not shown
B2: G3 (antibody, V domains shown)
VH: QVQLQESGPGLVKPSETLFLTCTVSGGSISSYYWTWIRQPAGKGLEWIGRIYTSGSTNYNPSLKSRVTMSVDTSKNQFSLKLSSVTAADTAVYYCAREDWESWTFDIWGQGTMVTVSS
VL: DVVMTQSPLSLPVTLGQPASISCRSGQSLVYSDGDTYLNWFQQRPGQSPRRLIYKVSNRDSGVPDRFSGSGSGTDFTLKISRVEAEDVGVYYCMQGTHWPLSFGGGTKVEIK
B3: O18 (antibody, V domains shown)
VH: QVQLQESGPGLVKPSETLSLTCTVSGGSINSYYWSWIRQPPGKGLEWIGYIFYSGITNYNPSLKSRVTISLDTSKNQFSLKLSSVTAADTAVYYCARIGVAGFYFDYWGQGTLVTVSS
VL: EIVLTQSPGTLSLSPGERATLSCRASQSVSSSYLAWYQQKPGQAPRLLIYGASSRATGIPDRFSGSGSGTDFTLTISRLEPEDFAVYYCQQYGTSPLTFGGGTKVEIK
B4: A18 (antibody, V domains shown)
VH: QVTLRESGPALVKSTQTLTLTCTFSGFSLSTSGMCVSWIRQTPGKALEWLALIDWDDNKYYSTSLKTRLIISKDTSKNQVVLTMTNMEPVDTATYYCARIRGYSGSYDAFDIWGQGTMVTVSS
VL: DIVMTQSPLSLPVTPGEPASISCRSSQSLLHSNGYNYLDWYLQKPGQSPHILLYLGSNRAPGVPDRFSGSGSGTDFTLKISRVEAEDVGVYYCMQALQTPFTFGPGTKVDIK
B5: K19 (antibody, V domains shown)
VH: QVQLVQSGAEVKKPGASLKVSCKTSGYTFNSYYMHWVRQAPGQGLEWMGINNPSGGTTSYAQKFQGRVTMTRDTSTSTVYMELSSLRSEDTAVYYCARDWGEQYGMDVWGQGTTVTVSS
VL: not shown
B6: C8 (antibody, V domains shown)
VH: EVQLVESGGGLVQPGGSQRLSCAASGFTFSSYWMNWVRQAPGKGLEWVANIKEDGSEKYYVDSVKGRFTISRDNAKNSLYLQMNSLRAEDTAVYYCARDPGWAPFDYWGQGTLVTVSS
VL: DIQMSQSPSSLSASVGDRVTITCRASQGISNYLAWFQQKPGKAPKSLIYAASSLQSGVPSKFSGSGSGTDFTLAISSLQPEDFATYYCQQYNSFPYTFGQGTTLEIK
B7: D8 (antibody, V domains shown)
VH: QVQLVQSGAEVKKPGASVKVSCKASGYTFTTYYMHWVRQAPGQGLEWMGIINPSGGSTSYAQKFQGRVTMTRDTSTSTVYMELSSLRSEDTAVYYCARQGHYIGNYLDYWGQGTLVTVSS
VL: not shown
B8: J23 (antibody, V domains shown)
VH: QVQLVQSGAEVKKPGASVKVSCKASGYTFTSYYMHWVRQAPGQGLEWMGIINYSGGSKSYAQKFQGRVTMTRDTSTSTVYMELSSLRSEDTGVYYCARQGRYSGSYLDYWGQGTLVTVSS
VL: not shown
B9: F9 (antibody, V domains shown)
VH: QVQLVQSGAEVKKPGASVQVSCKASGYTFTSYYMHWVRQAPGQGLEWMGIINPSGGSTSYAQKFQGRVTMTRDTSTSTVYMELSSLRSEDTAVYYCARQGGAQWLVLAFDIWGQGTMVTVSS
VL: EIVLTQSPGTLSLSPGERATLSCRASQSVSSYLAWYQQKPGQPPRLLIYGASSRATGIPDRFSGGGSGTDFTLTISRLEPEDFAVYYCQQYDSSPYTFGQGTKLEIK
B10: G16 (antibody, V domains shown)
VH: QVQLVQSGAEVKKPGASVQVSCKASGYTFTSYYMHWVRQAPGQGLEWMGIINPSGGSTSYAQKFQGRVTMTRDTSTSTVYMELSSLRSEDTAVYYCARQGGAQWLVLAFDIWGQGTMVTVSS
VL: EIVLTQSPGTLSLSPGERATLSCRASQSVSSYLAWYQQKPGQAPRLLIYGASSRATGIPDRFSGGGSGTDFTLTISRLEPEDFAVYYCQQYGSSPYTFGQGTKLEIK

What follows are binders tested against T1, DLL3 (target in the Fab-Zap …) (assay: cell-based or functional assay).

Going from B1 to B2, the “Percent Max Killing (Fab-Zap internalization assay, 10 ug/ml)” value (shortened to “Percent Max Killing”) rises from 74% to 86%.

Compared with B3, B4 is lower in “Percent Max Killing” value: 88% for the first, 67% for the second.

Going from B5 to B6, the “Percent Max Killing” value rises from 71% to 89%.

Compared with B7, B8 is lower in “Percent Max Killing” value: 68% for the first, 59.5% for the second.

Compared with B9, B10 is lower in “Percent Max Killing” value: 70% for the first, 46% for the second.
